This is an account of results in the supplement of paper PMC7877785.

± gives the uncertainty stated by the source.

The series can be described thus: self-splicing fitness, log relative to wild type (ln ratio); higher = more splicing; Tetrahymena group I intron in knt gene, E. coli kanamycin selection, DiMSum; sequences stand for … in CUCUCU…GGAGGGAAAAGUUAUCAGGCAUGCACCUGGUAGCUAGUCUUUAAACCAAUAGAUUGCAUCGGUUUAAAAGGCAAGACCGUCAAAUUGCGGGAAAGGGGUCAACAGCCGUUCAGUACCAAGUCUCAGGGGAAACUUUGAGAUGGCCUUGCAAAGGGUAUGGUAAUAAGCUGACGGACAUGGUCCUAACCACGCAGCCAAGUCCUAAGUCAACAGAUCUUCUGUUGAUAUGGAUGCAGUUCACAGACUAAAUGUCGGUCGGGGAAGAUGUAUUCUUCUCAUAAGAUAUAGUCGGACCUCUCCUUAAUGGGAGCUAGCGGAUGAAGUGAUGCAACACUGGAGCCGCUGGGAACUAAUUUGUAUGCGAAAGUAUAUUGAUUAGUUUUGGAGUACUCGUGGUCG
The essentials:
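Fitness was computed with DiMSum as the error-weighted combination of replicate fold changes, kanamycin versus none, each normalised to wild type. The library randomised all eight intron nucleotides of the P1ex region, with the intron placed in the knt kanamycin-resistance gene on pET-22b(+) in E. coli BL21(DE3). Six replicate transformations were grown overnight at 37°C or 30°C on LB agar with or without 25 μg/mL kanamycin, plus 100 μg/mL carbenicillin, 50 μM IPTG and 0.2% rhamnose. Pooled colonies were amplicon-sequenced on an Illumina HiSeq 2500.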

As for CCCUAGCAAUAUUACGAUAU, the “self-splicing fitness (ln)” value reads like this: (30 °C) -2.92 ± 0.15; (37 °C) -2.97 ± 0.27.
Turning to GCAUAGCAAUAUUACGAAUA, the “self-splicing fitness (ln)” value reads like this: (30 °C) -2.07 ± 0.17; (37 °C) -1.38 ± 0.19.
Taken in the same sequence, the figures for CUACAGCAAUAUUACGCGGC were -2.27 ± 0.15 and -0.807 ± 0.14.
In the case of UUGAAGCAAUAUUACGGUCU, the “self-splicing fitness (ln)” value runs as follows: (30 °C) -0.0588 ± 0.058; (37 °C) -0.0885 ± 0.075.
On to CGAGAGCAAUAUUACGAUUC, for which the “self-splicing fitness (ln)” value by setting is: (30 °C) -2.96 ± 0.38; (37 °C) -1.19 ± 0.29.
For the sequence UCCCAGCAAUAUUACGUCCG, the “self-splicing fitness (ln)” value (37 °C) is -2.06 ± 0.47.
AAGAAGCAAUAUUACGACUA: the “self-splicing fitness (ln)” value by setting is: (30 °C) 0.152 ± 0.072; (37 °C) 0.144 ± 0.1.
Turning to CAAGAGCAAUAUUACGGCUU, the “self-splicing fitness (ln)” value is -3.51 ± 0.39 (30 °C) and -2.36 ± 0.17 (37 °C).
Taken in the same sequence, the figures for UAGUAGCAAUAUUACGGAAC were -2.97 ± 0.3 and -3.42 ± 0.42.
On to GAAUAGCAAUAUUACGGGGA, for which the “self-splicing fitness (ln)” value is, setting by setting: (30 °C) -2.99 ± 0.19; (37 °C) -2.39 ± 0.19.
Take GCGAAGCAAUAUUACGUUCU: the “self-splicing fitness (ln)” value (30 °C) was -1.93 ± 0.11 and the “self-splicing fitness (ln)” value (37 °C) was -0.859 ± 0.11.
On the same counts, the results for GAGGAGCAAUAUUACGUGCU are -4.62 ± 0.42 and -2.32 ± 0.21.
Turning to CAAAAGCAAUAUUACGGAUA, the “self-splicing fitness (ln)” value reads like this: (30 °C) -3.27 ± 0.31; (37 °C) -1.81 ± 0.16.
Taken in the same sequence, the figures for CUUAAGCAAUAUUACGUGUU were -4.03 ± 0.15 and -2.66 ± 0.15.
As to UUUGAGCAAUAUUACGGGGA, the “self-splicing fitness (ln)” value (37 °C) was -2.42 ± 0.41.
Turning to ACUAAGCAAUAUUACGCCUA, the “self-splicing fitness (ln)” value (30 °C) is -1.41 ± 0.13 and the “self-splicing fitness (ln)” value (37 °C) is -0.734 ± 0.13.
On the same counts, the results for UGCCAGCAAUAUUACGCCCU are -1.49 ± 0.11 and -0.167 ± 0.13.
On the same counts, the results for UAGCAGCAAUAUUACGGGGA are -2.85 ± 0.2 and -1.73 ± 0.12.
Taken in the same sequence, the figures for UCUUAGCAAUAUUACGGGAG were -2.63 ± 0.49 and -2.41 ± 0.35.
CCGAAGCAAUAUUACGAUUC: for the setting “37 °C”, the “self-splicing fitness (ln)” value is -2.07 ± 0.25.
With CGGCAGCAAUAUUACGCUCC, the “self-splicing fitness (ln)” value is, setting by setting: (30 °C) -4.03 ± 0.39; (37 °C) -1.08 ± 0.25.
On the same counts, the results for UGGUAGCAAUAUUACGGCUU are 0.166 ± 0.18 and -0.0657 ± 0.2.
Taken in the same sequence, the figures for UUAUAGCAAUAUUACGCGAC were -2.5 ± 0.19 and -1.98 ± 0.2.
With GAUGAGCAAUAUUACGUGAU, the “self-splicing fitness (ln)” value (30 °C) is -3.66 ± 0.28 and the “self-splicing fitness (ln)” value (37 °C) was -2.3 ± 0.24.
Taken in the same sequence, the figures for CCUUAGCAAUAUUACGGUAC were -4.06 ± 0.21 and -2.44 ± 0.19.
As to ACGAAGCAAUAUUACGAUUU, the “self-splicing fitness (ln)” value runs as follows: (30 °C) -1.28 ± 0.094; (37 °C) -0.317 ± 0.1.
On the same counts, the results for CACAAGCAAUAUUACGCCGG are -0.875 ± 0.081 and -0.35 ± 0.095.
Taken in the same sequence, the figures for UAGGAGCAAUAUUACGUUGU were -3.31 ± 0.26 and -2.35 ± 0.23.
For AGAUAGCAAUAUUACGAUCA, the “self-splicing fitness (ln)” value (30 °C) is -0.325 ± 0.089 and the “self-splicing fitness (ln)” value (37 °C) was -0.00339 ± 0.11.
Taken in the same sequence, the figures for CUACAGCAAUAUUACGGAGG were -2.21 ± 0.087 and -1.33 ± 0.11.
On the same counts, the results for CGAAAGCAAUAUUACGGCAA are -1.82 ± 0.11 and -1.03 ± 0.1.
On to GCCCAGCAAUAUUACGGCUA, for which the “self-splicing fitness (ln)” value is, setting by setting: (30 °C) -1.1 ± 0.095; (37 °C) -0.549 ± 0.1.
For the sequence AGACAGCAAUAUUACGCGAA, the “self-splicing fitness (ln)” value runs as follows: (30 °C) -2.45 ± 0.12; (37 °C) -0.878 ± 0.1.
As to AGCGAGCAAUAUUACGACUU, the “self-splicing fitness (ln)” value was -0.736 ± 0.078 (30 °C) and 0.37 ± 0.1 (37 °C).
CCUCAGCAAUAUUACGUAUC: the “self-splicing fitness (ln)” value runs as follows: (30 °C) -0.834 ± 0.13; (37 °C) -3.05 ± 0.26.
On the same counts, the results for CCGUAGCAAUAUUACGGAAA are -3.22 ± 0.42 and -2.52 ± 0.46.
As to AGUGAGCAAUAUUACGUCUG, the “self-splicing fitness (ln)” value (30 °C) is -2.84 ± 0.34 and the “self-splicing fitness (ln)” value (37 °C) was -2.07 ± 0.38.
On the same counts, the results for AAGUAGCAAUAUUACGCGUC are -1.96 ± 0.12 and -2 ± 0.19.
In the case of ACUUAGCAAUAUUACGACCC, the “self-splicing fitness (ln)” value (30 °C) was 0.555 ± 0.32.
